Data on three variants can be found in IntAct's records for PubMed 31296862.

To fix the notation:
B1: Type IV methyl-directed restriction enzyme EcoKMcrB subunit (Escherichia coli (strain K12)), P15005 (parent)
chain: MESIQPWIEKFIKQAQQQRSQSTKDYPTSYRNLRVKLSFGYGNFTSIPWFAFLGEGQEASNGIYPVILYYKDFDELVLAYGISDTNEPHAQWQFSSDIPKTIAEYFQATSGVYPKKYGQSYYACSQKVSQGIDYTRFASMLDNIINDYKLIFNSGKSVIPPMSKTESYCLEDALNDLFIPETTIETILKRLTIKKNIILQGPPGVGKTFVARRLAYLLTGEKAPQRVNMVQFHQSYSYEDFIQGYRPNGVGFRRKDGIFYNFCQQAKEQPEKKYIFIIDEINRANLSKVFGEVMMLMEHDKRGENWSVPLTYSENDEERFYVPENVYIIGLMNTADRSLAVVDYALRRRFSFIDIEPGFDTPQFRNFLLNKKAEPSFVESLCQKMNELNQEISKEATILGKGFRIGHSYFCCGLEDGTSPDTQWLNEIVMTDIAPLLEEYFFDDPYKQQKWTNKLLGDS
partner: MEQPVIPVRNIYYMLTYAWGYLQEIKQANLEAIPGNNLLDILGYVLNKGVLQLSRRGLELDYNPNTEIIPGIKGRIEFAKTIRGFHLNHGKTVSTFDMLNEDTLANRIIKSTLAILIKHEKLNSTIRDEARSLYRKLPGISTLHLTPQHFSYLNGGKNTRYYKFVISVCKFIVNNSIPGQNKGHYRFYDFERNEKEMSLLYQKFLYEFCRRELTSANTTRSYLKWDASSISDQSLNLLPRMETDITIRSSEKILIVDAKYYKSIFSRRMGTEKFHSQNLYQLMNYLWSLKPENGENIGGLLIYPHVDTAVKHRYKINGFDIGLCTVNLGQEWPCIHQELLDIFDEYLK

Variants of B1 are the subject of the test. The note with it: with mcrc_ecoli mcrC.
E298A: the “effect of a mutation on the interaction” value is given as “with no effect”.
Take R348A: the “effect of a mutation on the interaction” value is “disrupting interaction strength”.
Consider R349A, for which the “effect of a mutation on the interaction” value was “disrupting interaction strength”.
